Data published in patent US20220402990.

Legend:
[1] = biological target: Activatable cytokine construct IFN-α-2b 1490DNI-hIgG4
[2] = biological target: Activatable cytokine construct IFN-α2b-1204DNIdl-hIgG4
[3] = biological target: IFN-α2b-1204DNIdl-hIgG4 with five amino acid residues added to the linker

B1: recombinant human matriptase (MT-SP1) (protein)
chain: VVGGTDADEGEWPWQVSLHALGQGHICGASLISPNWLVSAAHCYIDDRGFRYSDPTQWTAFLGLHDQSQRSAPGVQERRLKRIISHPFFNDFTFDYDIALLELEKPAEYSSMVRPICLPDASHVFPAGKAIWVTGWGHTQYGGTGALILQKGEIRVINQTTCENLLPQQITPRMMCVGFLSGGVDSCQGDSGGPLSSVEADGRIFQAGVVSWGDGCAQRNKPGVYTRLPLFRDWIKENTGV
[1]
  protease cleavage, gel electrophoresis: The results suggest that the proteases were effective at cleaving the cleavable moieties in the activatable cytokine constructs
[2]
  protease cleavage, gel electrophoresis: The results suggest that the proteases were effective at cleaving the cleavable moieties in the activatable cytokine constructs
[3]
  protease cleavage, gel electrophoresis: The results suggest that the proteases were effective at cleaving the cleavable moieties in the activatable cytokine constructs
